# Reference: PMC3915908 (Cell Research, 2013)
# B1: Lsm2 (natural protein)
# chain: MLFFSFFKTLVDQEVVVELKNDIEIKGTLQSVDQFLNLKLDNISCTDEKKYPHLGSVRNIFIRGSTVRYVYLNKNMVDTNLLQDATRREVMTERK
# B2: Lsm2-3 subcomplex, wild type (complex)
# chain 1: MLFFSFFKTLVDQEVVVELKNDIEIKGTLQSVDQFLNLKLDNISCTDEKKYPHLGSVRNIFIRGSTVRYVYLNKNMVDTNLLQDATRREVMTERK
# chain 2: METPLDLLKLNLDERVYIKLRGARTLVGTLQAFDSHCNIVLSDAVETIYQLNNEELSESERRCEMVFIRGDTVTLISTPSEDDDGAVEI
# Experiments:
# [1] = target: T1, C-terminal domain of Pat1 (Pat1C), wild type (S. cerevisiae, UniProt P25644 422-796); assay: crystal structure
# T1 sequence: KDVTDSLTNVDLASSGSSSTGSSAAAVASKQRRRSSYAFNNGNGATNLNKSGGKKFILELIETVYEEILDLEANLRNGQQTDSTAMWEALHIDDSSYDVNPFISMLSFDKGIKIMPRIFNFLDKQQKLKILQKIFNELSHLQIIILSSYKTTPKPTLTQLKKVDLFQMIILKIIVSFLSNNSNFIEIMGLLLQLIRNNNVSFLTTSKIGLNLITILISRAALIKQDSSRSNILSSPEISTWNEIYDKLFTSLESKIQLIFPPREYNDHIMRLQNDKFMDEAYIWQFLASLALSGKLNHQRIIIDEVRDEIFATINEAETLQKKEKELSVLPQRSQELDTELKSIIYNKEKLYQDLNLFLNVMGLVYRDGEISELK
# [2] = target: T1, C-terminal domain of Pat1 (Pat1C), wild …; assay: native gel or EMSA
Binder,binding result [1],binding result [2]
B1,binds,–
B2,–,binds
